± gives the standard deviation.
Test: protein stability index of a GFP-peptide fusion (GPS, HEK-293T) (PSI 1-6); higher = more stable
[1] = treatment: DMSO, c terminus: a fixed tail appended
[2] = treatment: MLN4924 1 uM, 8 h, c terminus: a fixed tail appended
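Further: 24-mer peptide tiles fused after GFP, lentivirally expressed, FACS-sorted into six equal bins by GFP/DsRed ratio, decoded by Illumina sequencing, PSI is the read-weighted mean bin number.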

Row | Sequence | protein stability index [1] | protein stability index [2] | protein stability index (treatment: DMSO, c terminus: native) | protein stability index (treatment: MLN4924 1 uM, 8 h, c terminus: native)
1 | CTPGGTTIYGLHALEQGGLRAATM [PYCR3] | 2.36 ± 0.73 | 2.25 ± 0.72 |  | 
2 | RLGPYVLLEPEEGGRAYQALHCPT [TRIB3] | 2.69 ± 0.1 | 2.87 ± 0.38 |  | 
3 | YSWNNRCMVEIVQKYDPDKDEWHK [KLHL13] | 2.84 ± 0.42 | 2.86 ± 0.25 |  | 
4 | PGHSGVSCEEVAASSASLEPMWSG [EMID1] |  | 5.08 ± 0.08 |  | 
5 | LQHVSEPQAHQESTRGAARPAQAI [SPACA9] | 4.96 ± 0.19 | 5.04 ± 0.098 |  | 
6 | AVETRLSLLNMTFMKYVDSNLCCF [FBXO28] | 2.99 ± 1.8 | 2.57 ± 1.3 |  | 
7 | QGSPAVDKERFTTLVQDLANAFQQ [CHIT1] | 3.13 ± 0.25 | 3.48 ± 0.22 |  | 
8 | EKIAAEIAQAEEQARKRQEEREKE [SMARCE1] | 5.44 ± 0.17 | 5.74 ± 0.25 |  | 
9 | ERQCALRVFKARIYTNRYETNEED [FBXO39] | 3.54 ± 0.36 | 3.61 ± 0.41 |  | 
10 | AEKETELSLQKEQLQLKIIEIEDE [TRIM29] | 5.42 ± 0.26 | 5.45 ± 0.26 |  | 
11 | LPHGVNFQDAIFPDTQENRRMFSS [CCDC3] | 3.91 ± 0.18 | 3.92 ± 0.097 |  | 
12 | QTESGSEEVSSTVHIETFTTRHGE [C10orf62] | 5.21 ± 0.3 | 5.27 ± 0.34 |  | 
13 | ERGSMKTHFNTAQGFRTVLELVIN [OAS1] | 2.13 ± 0.43 | 2.5 ± 0.56 |  | 
14 | QIPTQNTQARQVMEREFNNLLALG [PPFIA4] | 3.56 ± 0.12 | 3.37 ± 0.21 |  | 
15 | ISNVCEEYIVKKLSRQEFLGMVGL [SLC35F2] | 2.32 ± 0.17 | 2.35 ± 0.13 |  | 
16 | ISEYEKSLQFDEKCLSIMLAEWEA [RPAIN] | 2.34 ± 0.3 | 2.87 ± 0.33 |  | 
17 | CREPSPKMDFKTNILLKNLVTIAR [TRIM43] | 2.8 ± 0.59 | 2.35 ± 0.49 |  | 
18 | SQLDSGVSQAVEGPEELSRSSSES [RIPK4] | 5.5 ± 0.087 | 5.54 ± 0.26 |  | 
19 | YSGGGYYLDLPGSRQGSAEALRAL [PKD2L1] | 2.5 ± 0.48 | 2.92 ± 0.89 |  | 
20 | CGGYNGEVILGDIWKLNLQTFQWV [KLHDC10] | 2.44 ± 0.85 | 2.11 ± 0.71 |  | 
21 | KQNEKLNNQEEETEFKELDGLREA [CCDC89] | 5.51 ± 0.28 | 5.54 ± 0.3 |  | 
22 | MRARDSVYHIECFRCSVCSRQLLP [ISL2] | 2.2 ± 0.24 | 2.22 ± 0.35 |  | 

Row | Sequence | protein stability index [1] | protein stability index [2] | protein stability index (treatment: DMSO, c terminus: native) | protein stability index (treatment: MLN4924 1 uM, 8 h, c terminus: native)
23 | RTKVVKPYSTVDNPVYYGPSDFFI [EFHC1] | 2.35 ± 0.22 | 2.42 ± 0.36 |  | 
24 | ECDNMLMLLSVSQSMSEEEREKVT [SEPHS2] | 4.58 ± 0.12 | 4.58 ± 0.24 |  | 
25 | KATAAFSNVGTAISKKFGDMSYSI [TPD52L1] | 2.72 ± 0.14 | 2.72 ± 0.13 |  | 
26 | DNDHKEAVGKMGFVVTMLKLIQKK [ZER1] | 2.21 ± 0.37 | 2.07 ± 0.34 |  | 
27 | GMRYAFIGPLETMHLNAEGMLSYC [CRYL1] | 2.56 ± 0.62 | 2.72 ± 0.74 |  | 
28 | FKKHDADKVGLITLSDWAAAVESV [PPEF2] |  | 2.64 ± 0.46 |  | 
29 | EALLKLLAGLTRPDVRPPLGRGLV [SEPHS2] | 2.22 ± 0.45 | 2.32 ± 0.24 |  | 
30 | VSCFLTFNIFDWLGRSLTAVFMWP [SLC29A1] | 3.03 ± 0.07 | 3.502 ± 0.017 |  | 
31 | EPSLKATMGLAGRARVKEKFSPEA [ALG2] | 4.6 ± 0.34 | 4.94 ± 0.19 |  | 
32 | SQKGCLALSLLELLGFNLTFVFLA [CLCN6] | 3.15 ± 0.42 | 3.03 ± 0.42 |  | 
33 | SLQEEPVEGFRITLVDESDLYNWE [UBE2R2] | 3.66 ± 0.49 | 3.58 ± 0.4 |  | 
34 | GWETRGDRKARKPLVEKKRRARIN [HES6] | 4.31 ± 0.36 | 4.54 ± 0.12 |  | 
35 | NEPSQAETAVEGDPSGVSGATVGR [C18orf25] | 5.66 ± 0.22 | 5.66 ± 0.11 |  | 
36 | CFVKDNPQKSYFIRLYGLQAGRLL [WAS] | 2.49 ± 0.58 | 2.22 ± 0.45 |  | 
37 | AKRCTVIGGSGFLGQHMVEQLLAR [NSDHL] | 2.1 ± 0.2 | 2.21 ± 0.41 |  | 
38 | KLVDAIVSGDTSKLMKILQPQDVD [RIPK4] | 2.51 ± 0.31 | 2.38 ± 0.64 |  | 
39 | IAMTSGTVQPKQDAFANFANFSK [CLINT1] |  |  | 4.22 ± 0.22 | 4.17 ± 0.31
40 | MVGLILGPFGINHGIELHSDVVEY [PCMTD1] | 2.68 ± 0.65 | 2.85 ± 0.52 |  | 
41 | SVVPEMEESGAQLLLEMLTFNPHK [CDK4] | 3.14 ± 0.26 | 3.15 ± 0.38 |  | 
42 | REALTRLQELCYQWLRPHVSTKEQ [ZSCAN9] | 1.99 ± 0.24 | 2.46 ± 0.32 |  | 
43 | LSGVEEELQRTKQEVLSLRRENST [SASS6] | 5.07 ± 0.22 | 5 ± 0.21 |  | 
44 | QSGLVWTNCWLIRELNLPFGGMKS [ALDH8A1] | 2.6 ± 0.48 | 2.61 ± 0.68 |  | 

Row | Sequence | protein stability index [1] | protein stability index [2] | protein stability index (treatment: DMSO, c terminus: native) | protein stability index (treatment: MLN4924 1 uM, 8 h, c terminus: native)
45 | ERITILRGNHESRQITQVYGFYDE [PPP2CA] | 2.84 ± 0.13 | 3.1 ± 0.25 |  | 
46 | CESLTYGLPFILRPTSCWQLDWDE [M1AP] | 2.25 ± 0.15 | 2.04 ± 0.3 |  | 
47 | QMMPYMQPVMQSDRTAIRSDTTHL [KLHL13] | 3.5 ± 0.24 | 3.5 ± 0.23 |  | 
48 | EKKDTITNDSLSLKPSWFDFGFAI [MIA2] | 2.46 ± 0.19 | 2.48 ± 0.19 |  | 
49 | GKAYRFLFGFSAVSIMYLVLVLAV [JAGN1] | 2.22 ± 0.1 | 2.12 ± 0.35 |  | 
50 | AAMLRGQSDVGVAVFENKIYVVGG [KLHL13] | 2.07 ± 0.12 | 2.46 ± 0.55 |  | 
51 | SLDISGHMILENCSISKMEEEAGQ [ZER1] | 4.66 ± 0.22 | 4.68 ± 0.22 |  | 
52 | ACDSKLTFDAITTIRGEVMFFKDR [MMP1] | 2.45 ± 0.24 | 2.83 ± 0.19 |  | 
53 | PTQGPETPRSPEGTTEAATQDGKE [PXN] | 5.62 ± 0.19 | 5.48 ± 0.22 |  | 
54 | DITDDCICDLARSIDFNKDGHIDI [PPEF2] | 3.87 ± 0.19 | 4.05 ± 0.39 |  | 
55 | PATEEQEAASSSSTLVEVTLGEVP [MAGEA3] | 5.52 ± 0.17 | 5.51 ± 0.17 |  | 
56 | CQGQPQGKAVVSHSKGHKSSRQEK [ELOA2] | 5.38 ± 0.22 | 5.37 ± 0.1 |  | 
57 | KRCIVILREIPETTPIEEVKGLFK [LARP4] | 2.23 ± 0.46 | 1.93 ± 0.47 |  | 
58 | SSFSLLLDLLSELYQKQPKIGYHL [INTS3] | 3.05 ± 0.2 | 2.86 ± 0.62 |  | 
59 | GVSKVGLRKIIDFIYTAKLSLNMD [KLHL13] | 2.81 ± 0.75 | 2.83 ± 0.63 |  | 
60 | LRRKTPRHKQPTLLMVRASRRSGK [C6orf223] | 3.61 ± 0.13 | 4.04 ± 0.22 |  | 
61 | AQLRLQLEVSQLEGSLQQPKAQSA [SMG5] | 3.66 ± 0.24 | 3.7 ± 0.28 |  | 
62 | KQPDLTMVRKIGCYAAMKKKIYAM [GAN] | 2.28 ± 0.45 | 2.21 ± 0.14 |  | 
63 | EDRLSLKFLPSSEEDNDDAKILPS [DRICH1] | 5.34 ± 0.23 | 5.33 ± 0.11 |  | 
64 | AAGSPRSPGPLPGARGLHLPDAGS [ISL2] | 4.6 ± 0.35 | 4.72 ± 0.16 |  | 
65 | LCGENFSHRSNLIRHQRIHTGEKP [ZNF263] | 3.91 ± 0.17 | 3.72 ± 0.22 |  | 
